Assay results taken from US20220125947A1 (published 2022).

Biological target: T1, γδ T cell receptor on human γδ T cells (human)
T1 construct: also called AG000003021 (γδ T cells)
Experiment: flow cytometry, dose-response binding at 37 C on human γδ T cells
Experimental: Binding of antibodies to human γδ T cells or SKW cell lines expressing Vγ9/Vδ2, Vγ9/Vδ2 or Vγ5/Vδ2 was carried out by flow cytometry. Briefly, the cells were centrifuged at 300×g for 5 minutes and the pellet was resuspended in 34 ml fresh media (in RPMI+10% FBS). 50 μL of the cells were then plated (44K cells/well) into assay plates. Samples were incubated for one hour at 37° C. in tissue culture (TC) incubator followed by wash steps by adding 100 μl FACS staining buffer. Secondary detention antibodies (A647 conjugated anti-human IgG Fc specific antibody (2 μg/mL) along with AF488 anti mouse CD3, clone OKT3 at 1 ug/mL) were added at 50 μL/well to appropriate wells according to the plate map. After incubating for 60 minutes at 37° C. in the TC incubator, cells were again washed as described above. This is followed by resuspension in 20 μL/well running buffer containing 1:1000 dilution of Sytox blue dead cell stain and the plates were run on iQue Screener.
Gating and data analysis: Human anti-human Vγ9 antibody (VG9B2 mAb at 10 nM) was used to mark the gating of positive population. All cells were first gated for singlets on SCS-A vs. SCS-H dot plot, live/dead followed by CD3 positive population, and this subset of CD3 positive population was gated for Vγ9 positive binding using positive control mAb. Cells were also assessed for cell binding of control mAbs by RL1 (A647) Geomeans from the live cell population. Advanced metrics were used and normalization metrics were chosen to calculate fold over background wells containing secondary antibody alone (designated as ‘background’ within ForeCyt settings).

| Binder | Max. Activity [fold over background] |
| --- | --- |
| VG9B384 (antibody, human IgG1, lambda, V domains shown, IgG1, lambda; also called antibody #36) VH: QVQLQESGPALVKPTQTLTLTCTFSGFSLSSSGMCVSWIRQPPGKALEWLTLIDWFDDKYYSTSLKTRLTISKDTSKNQVVLTMTNMDPVDTATYYCARIRGTGAYYYGLDVWGQGTMVTVSS VL: SYELMQPPSVSVSPGQTASITCSGNELGDKYASWYQQQPGQSPVLVIYQDNKRPSGIPERFSGSNSGNTATLTISGTQAMDEADYYCQAWDSSKVVFGGGTKLTVLG | 2550 |
| VG9B143 (antibody, human IgG1, lambda, V domains shown, IgG1, lambda; also called antibody #31) VH: EVQLVESGGGLVQPGGSLRLSCAASGFTFSTYGMNWVRQAPGKGLEWISYISTSSYTIYYSDSVKGRFTVSRDNAKNSLYLQMNSLRDEDTAVYYCAREGDWWYFDLWGRGTTVTVSS VL: QSALTQPASVSGSPGQSITISCTGTSSDVGGYNYVSWYQQHPGKAPKLMIYEVSNRPSGVSYRFSGSKSGNTASLTISGLQAEDEADYYCSSYTSSSTLVFGGGTKLTVLG | 2630 |
| VG9B472 (antibody, human IgG1, kappa, V domains shown, IgG1, kappa; also called antibody #33) VH: QVQLVESGGGLVKPGGSLRLSCAASGFTFSHYDMNWVRQAPGKGLEWVSSISSSSSYIFYADSVKGRFTISRDNAKNSLLLQMNSLRAEDTAVYHCARDRGVGDTSDYYSFGLDVWGQGTTVTVSS VL: EIVLTQSPSSLSASVGDRVTITCRASQGIATYLAWYQQKPGKVPNLLIYAASTLQSGVPSRFSGSGSGTDFTLTISSLQPEDVATYYCQKYNSAPPWTFGQGTKVEIKR | 2620 |
| VG9B88 (antibody, human IgG1, kappa, V domains shown, IgG1, kappa; also called antibody #35) VH: EVQLVESGGGLVKPGGSLRLSCAVSGFTFSSYTMNWVRQAPGKGLEWVSSISTSSSYIDYADSVKGRFTISRDNAKKSLYLQMNSLRAEDTAVYYCARDGDMVAPIKGSFDYWGQGTLVTVSS VL: EIVLTQSPLSLPVTPGEPASISCRSSQSLLNSDDGNTYLDWYLQKPGQSPQLLIYTLSYRASGVPDRFSGSGSGTDFTLKISRVEAEDVGVYYCMQRIEFPITFGQGTRLEIKR | 2560 |
| VG9B421 (antibody, human IgG1, kappa, IgG1, kappa; also called antibody #34) heavy: not shown light: DIQMTQSPSSVSASVGDRVTITCRASQGINSWLAWYQQKPGNAPKLLIYAASSLQSGVPSRFSGIGSGTDFIFTISSLQPEDFASYYCQQANSFPWTFGQGTRLEIKRTVAAPSVFIFPPSDEQLKSGTASVVCLLNNFYPREAKVQWKVDNALQSGNSQESVTEQDSKDSTYSLSSTLTLSKADYEKHKVYACEVTHQGLSSPVTKSFNRGEC | 2610 |
| VG9B428 (antibody, human IgG1, kappa, IgG1, kappa; also called antibody #18) heavy: not shown light: EIVMTQSPSSVSASVGDRVTITCRASQGINSWLAWYQQKPGNAPKLLIYAASSLQSGVPSRFSGIGSGTDFIFTISSLQPEDFASYYCQQANSFPWTFGQGTKVEIKRTVAAPSVFIFPPSDEQLKSGTASVVCLLNNFYPREAKVQWKVDNALQSGNSQESVTEQDSKDSTYSLSSTLTLSKADYEKHKVYACEVTHQGLSSPVTKSFNRGEC | 2980 |
| VG9B419 (antibody, human IgG1, kappa, IgG1, kappa; also called antibody #29) heavy: not shown light: EIVLTQSPGTLSLSPGDRATLSCRASQSVASSYLAWYQQKPGQSPRLLIYGASSRATGIPDRFSGSGSGTDFTLTISRLEPEDFAVYYCQQYGSSPPYTFGQGTKVEIKRTVAAPSVFIFPPSDEQLKSGTASVVCLLNNFYPREAKVQWKVDNALQSGNSQESVTEQDSKDSTYSLSSTLTLSKADYEKHKVYACEVTHQGLSSPVTKSFNRGEC | 2690 |
| VG9B413 (antibody, human IgG1, kappa, IgG1, kappa; also called antibody #37) heavy: not shown light: EIVMTQSPGTLSLSPGDRATLSCRASQSVASSYLAWYQQKPGQSPRLLIYGASSRATGIPDRFSGSGSGTDFTLTISRLEPEDFAVYYCQQYGSSPPYTFGQGTKVEIKRTVAAPSVFIFPPSDEQLKSGTASVVCLLNNFYPREAKVQWKVDNALQSGNSQESVTEQDSKDSTYSLSSTLTLSKADYEKHKVYACEVTHQGLSSPVTKSFNRGEC | 2470 |
| VG9B418 (antibody, human IgG1, kappa, IgG1, kappa; also called antibody #32) heavy: not shown light: EIVLTQSPGTLSLSPGDRATLSCRASQSVASSYLAWYQQKPGQSPRLLIYGASSRATGIPDRFSGSGSGTDFTLTISRLEPEDFAVYYCQQYGSSPPYTFGQGTKLEIKRTVAAPSVFIFPPSDEQLKSGTASVVCLLNNFYPREAKVQWKVDNALQSGNSQESVTEQDSKDSTYSLSSTLTLSKADYEKHKVYACEVTHQGLSSPVTKSFNRGEC | 2630 |
